Target: hnRNP A2 (recombinant) (Homo sapiens, UniProt P22626-2 1-341)
Test: UV-cross-linking EMSA, competition

GCCAAGGAGCC (ssRNA) [A2RE11]: binds.
